# Reference: PMC7946940
# Experiments:
# [1] = target: Rab5a(1–212)-Q79L-C19S-C63S (human) (UniProt P20339)
# [2] = target: Rab1a(1–204)-Q70L-C26S-C126S (human) (UniProt P62820)
# Chain of Rab1a(1–204)-Q70L-C26S-C126S (human) (P62820 1-204 C26S/Q70L/C126S): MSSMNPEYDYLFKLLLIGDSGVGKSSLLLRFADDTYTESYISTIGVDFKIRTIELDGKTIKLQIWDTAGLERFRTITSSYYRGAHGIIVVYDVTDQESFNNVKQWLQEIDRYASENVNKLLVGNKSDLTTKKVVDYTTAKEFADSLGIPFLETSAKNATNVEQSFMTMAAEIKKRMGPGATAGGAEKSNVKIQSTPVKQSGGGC
# Chain of human VPS34 complex I (VPS34/VPS15/Beclin 1/ATG14L) (Q8NEB9 whole entry): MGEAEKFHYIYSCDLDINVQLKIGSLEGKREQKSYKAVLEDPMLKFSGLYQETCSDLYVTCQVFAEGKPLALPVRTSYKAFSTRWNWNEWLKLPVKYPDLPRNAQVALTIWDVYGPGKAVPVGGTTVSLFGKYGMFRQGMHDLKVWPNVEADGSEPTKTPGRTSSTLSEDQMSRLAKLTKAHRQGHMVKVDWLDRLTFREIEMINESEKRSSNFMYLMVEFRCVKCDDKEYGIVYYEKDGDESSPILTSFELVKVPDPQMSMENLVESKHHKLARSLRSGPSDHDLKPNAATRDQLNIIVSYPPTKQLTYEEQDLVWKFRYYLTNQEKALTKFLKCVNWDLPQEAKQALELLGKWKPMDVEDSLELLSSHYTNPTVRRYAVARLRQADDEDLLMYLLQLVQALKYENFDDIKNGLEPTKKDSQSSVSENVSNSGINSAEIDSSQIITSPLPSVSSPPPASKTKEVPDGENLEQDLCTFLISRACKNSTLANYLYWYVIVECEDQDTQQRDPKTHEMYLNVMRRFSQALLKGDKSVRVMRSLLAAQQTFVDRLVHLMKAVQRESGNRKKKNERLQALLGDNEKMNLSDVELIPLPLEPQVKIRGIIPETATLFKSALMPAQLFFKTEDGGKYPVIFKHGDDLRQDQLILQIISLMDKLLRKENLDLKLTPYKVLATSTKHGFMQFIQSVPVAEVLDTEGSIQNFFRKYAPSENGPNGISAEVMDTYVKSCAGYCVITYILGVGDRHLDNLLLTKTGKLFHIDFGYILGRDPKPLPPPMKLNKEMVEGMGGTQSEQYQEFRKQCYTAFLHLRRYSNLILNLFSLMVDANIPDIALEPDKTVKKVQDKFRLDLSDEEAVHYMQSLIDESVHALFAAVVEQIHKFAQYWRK
# Chain of human VPS34 complex I (VPS34/VPS15/Beclin 1/ATG14L) (Q99570 whole entry): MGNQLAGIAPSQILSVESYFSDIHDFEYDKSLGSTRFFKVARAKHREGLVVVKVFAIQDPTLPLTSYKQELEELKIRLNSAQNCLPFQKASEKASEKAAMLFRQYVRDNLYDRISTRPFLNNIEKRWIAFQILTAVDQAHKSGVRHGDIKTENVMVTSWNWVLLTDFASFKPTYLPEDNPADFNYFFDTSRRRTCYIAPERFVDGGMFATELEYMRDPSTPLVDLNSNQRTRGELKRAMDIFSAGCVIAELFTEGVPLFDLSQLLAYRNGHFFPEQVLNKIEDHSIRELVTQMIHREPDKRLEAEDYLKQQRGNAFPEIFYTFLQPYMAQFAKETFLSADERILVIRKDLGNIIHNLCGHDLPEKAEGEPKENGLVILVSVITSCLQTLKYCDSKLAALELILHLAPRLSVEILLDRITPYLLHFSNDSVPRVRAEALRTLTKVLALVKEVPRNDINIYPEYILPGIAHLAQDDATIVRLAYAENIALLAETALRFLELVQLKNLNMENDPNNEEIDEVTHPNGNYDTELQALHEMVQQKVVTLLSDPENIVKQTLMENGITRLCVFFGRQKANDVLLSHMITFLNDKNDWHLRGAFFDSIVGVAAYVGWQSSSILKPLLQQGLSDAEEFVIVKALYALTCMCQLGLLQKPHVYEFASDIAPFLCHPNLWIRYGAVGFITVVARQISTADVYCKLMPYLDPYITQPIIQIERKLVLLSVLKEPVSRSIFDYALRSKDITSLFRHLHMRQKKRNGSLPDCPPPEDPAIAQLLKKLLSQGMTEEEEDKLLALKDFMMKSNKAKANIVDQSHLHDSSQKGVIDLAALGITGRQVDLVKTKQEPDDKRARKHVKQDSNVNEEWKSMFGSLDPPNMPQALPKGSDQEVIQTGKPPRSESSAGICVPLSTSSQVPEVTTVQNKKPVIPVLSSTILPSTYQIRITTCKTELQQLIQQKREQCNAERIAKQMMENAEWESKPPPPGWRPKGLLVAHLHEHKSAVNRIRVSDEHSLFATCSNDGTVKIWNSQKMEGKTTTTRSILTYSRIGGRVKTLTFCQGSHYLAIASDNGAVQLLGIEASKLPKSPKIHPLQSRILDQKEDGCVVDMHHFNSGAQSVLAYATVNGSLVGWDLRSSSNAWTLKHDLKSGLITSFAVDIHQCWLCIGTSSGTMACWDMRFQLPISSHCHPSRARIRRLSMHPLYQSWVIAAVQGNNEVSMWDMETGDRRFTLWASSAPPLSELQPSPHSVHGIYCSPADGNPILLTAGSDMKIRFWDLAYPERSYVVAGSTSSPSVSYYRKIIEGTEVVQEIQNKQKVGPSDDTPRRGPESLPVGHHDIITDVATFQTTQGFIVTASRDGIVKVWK
# Chain of human VPS34 complex I (VPS34/VPS15/Beclin 1/ATG14L) (Q14457 whole entry): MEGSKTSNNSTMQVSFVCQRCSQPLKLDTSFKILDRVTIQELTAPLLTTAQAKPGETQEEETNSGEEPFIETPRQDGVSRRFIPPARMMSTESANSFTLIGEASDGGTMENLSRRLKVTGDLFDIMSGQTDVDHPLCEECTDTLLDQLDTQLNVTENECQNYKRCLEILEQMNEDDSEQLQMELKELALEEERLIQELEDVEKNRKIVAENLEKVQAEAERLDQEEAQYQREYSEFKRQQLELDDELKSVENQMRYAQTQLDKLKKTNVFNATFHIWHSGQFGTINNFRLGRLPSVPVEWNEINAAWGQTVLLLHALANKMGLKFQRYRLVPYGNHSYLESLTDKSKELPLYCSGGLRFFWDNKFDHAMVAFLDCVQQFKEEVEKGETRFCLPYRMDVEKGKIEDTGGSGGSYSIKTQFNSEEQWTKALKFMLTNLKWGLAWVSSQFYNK
# Chain of human VPS34 complex I (VPS34/VPS15/Beclin 1/ATG14L) (Q6ZNE5 whole entry): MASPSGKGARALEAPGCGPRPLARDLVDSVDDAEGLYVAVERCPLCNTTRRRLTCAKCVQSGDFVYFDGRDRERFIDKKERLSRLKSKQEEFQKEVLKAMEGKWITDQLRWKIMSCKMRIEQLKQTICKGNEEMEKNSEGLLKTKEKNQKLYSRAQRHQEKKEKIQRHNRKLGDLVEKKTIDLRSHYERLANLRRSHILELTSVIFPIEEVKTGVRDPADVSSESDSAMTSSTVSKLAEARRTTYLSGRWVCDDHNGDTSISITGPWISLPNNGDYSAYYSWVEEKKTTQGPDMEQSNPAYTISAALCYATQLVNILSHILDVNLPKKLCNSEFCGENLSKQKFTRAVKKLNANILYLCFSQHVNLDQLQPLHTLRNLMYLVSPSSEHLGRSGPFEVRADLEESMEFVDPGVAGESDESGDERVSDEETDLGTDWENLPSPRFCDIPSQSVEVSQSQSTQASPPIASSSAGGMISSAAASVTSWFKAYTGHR
# Chain of Rab5a(1–212)-Q79L-C19S-C63S (human) (P20339 1-212 C19S/C63S/Q79L): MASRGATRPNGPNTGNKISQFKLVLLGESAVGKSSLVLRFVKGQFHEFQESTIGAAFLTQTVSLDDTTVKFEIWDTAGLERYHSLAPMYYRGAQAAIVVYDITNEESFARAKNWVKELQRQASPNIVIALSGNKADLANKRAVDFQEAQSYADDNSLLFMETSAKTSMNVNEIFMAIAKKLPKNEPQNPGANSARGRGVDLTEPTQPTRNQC
"GUV-based lipid kinase activity, activation of complex II REIE > AAAA by Rab5a–GTP against wild-type complex II [1] [fold]",Substance,"GUV-based lipid kinase activity of complex I, fold activation by Rab1a–GDP on the GUVs [2] [fold]","GUV-based lipid kinase activity of complex I, fold activation by Rab1a–GTP on the GUVs [2] [fold]"
4,complex II REIE > AAAA (VPS34 199-REIE-202 to alanine/VPS15/Beclin 1/UVRAG) (from UniProt Q8NEB9 1-887; Q99570 1-1358; Q14457 1-450; Q9P2Y5 1-699),,
,human VPS34 complex I (VPS34/VPS15/Beclin 1/ATG14L) (from UniProt Q8NEB9 1-887; Q99570 1-1358; Q14457 1-450; Q6ZNE5 1-492),3,11
